{"source": "patent US20130078247A1", "about": "(Boehringer Ingelheim, published 2013)", "binders": {"B1": {"name": "DLLBII101G08 (VHH)", "VHH": "EVQLVESGGGLVQAGGSLRLSCAASGRTFSSYAMAWFRQAPGKEREFVAAIRWSGGTAYYADSVQGRFTISRDNAKNTVYLQMNSLKPEDTAVYYCANRAADTRLGPYEYDYWGQGTQVTVSS", "notes": "also called 101G8; DLLBII101G8; not shown: C-terminal c-myc and His6 tags"}, "B2": {"name": "DLLBII133G05 (VHH)", "VHH": "EVQLVESGGGLVQPGGSLRLSCAASGFTFGSYDMSWVRRSPGKGPEWVSAINSGGGSTYYTDYVKGRFTISRDNAKNTLYLQMNSLKPEDTAVYYCAADRYIWARQGEYWGAYAYDYWGQGTQVTVSS", "notes": "not shown: C-terminal c-myc and His6 tags"}, "B3": {"name": "78B04 (VHH)", "VHH": "EVQLVESGGGLVQAGGSLRLSCAASGRTFSNYIMGWFRQAPGKEREFVAGISRYGDYTYYADSVKGRFTISRDNVKNTVYLRMNSLKPDDTAVYYCAANEGYCSGYGCYEDSGQYDYWGQGTQVTVSS", "notes": "also called DLLBII78B04"}, "B4": {"name": "00042 (VHH)", "VHH": "EVQLVESGGGLVQPGGSLRLSCAASGFTLDDYAIGWFRQAPGKEREGVSSIRDNDGSTYYADSVKGRFTISSDNSKNTVYLQMNSLRPEDTAVYYCAAVPAGRLRFGEQWYPLYEYDAWGQGTLVTVSS"}, "B5": {"name": "00045 (VHH)", "VHH": "EVQLVESGGGLVQPGGSLRLSCAASGFALDYYAIGWFRQAPGKEREGVSCISSSDGITYYADSVKGRFTISRDNSKNTVYLQMNSLRPEDTAVYYCATDSGGYIDYDCMGLGYDYWGQGTLVTVSS"}, "B6": {"name": "DLLBII55D12 (VHH)", "VHH": "EVQLVESGGGLVQPGGSLRLSCAASGFTFDDYAIGWFRQAPGKEPEGISCISSSGGITYYADSVKGRFTISRDNAKNTVYLQMNSLKPEDTAVYYCATPGIAACRGIHYTGQGTQVTVSS", "notes": "as for B2"}, "B7": {"name": "DLLBII19D10 (VHH)", "VHH": "EVQLVESGGGLVQAGDSLRLSCAASGRTVGSYDMSWVRQGPGKEREWVSSINSGVGKTYYADSVKGRFTIFRDNAKNMVYLQMNNLKPEDTAVYYCATEMDGSRYVEGQGTQVTVSS", "notes": "as for B2"}, "B8": {"name": "DLLBII17G10 (VHH)", "VHH": "EVQLVESGGGLVQAGGSLRLSCAASGSTFSSYAMGWYRHQAPGKQRELVAAISSDGSTHYADSVKGRFTISRDNAKNTMYLQMNSLKPEDTAVYYCNTKTFGSNWYDDYWGQGTQVTVSS", "notes": "as for B2"}, "B9": {"name": "DLLBII17C01 (VHH)", "VHH": "EVQLVESGGGLVQAGGSLRLSCAASGFTFDDYPIGWLRQAPGKEREGVSCISSSDDSTYYADSVKGRFTISSNNAKNTVYLQMNSLKPEDTAVYYCAVRLFSGGCAVVAGTSWADFGSSGQGTQVTVSS", "notes": "also called DLLBII17C1; not shown: C-terminal c-myc and His6 tags"}}, "key": {"[1]": {"target": "T1, human DLL4, full length, overexpressed on CHO or HEK293 cells (human, UniProt Q9NR61 27-685)", "T1 construct": "also called CHO-hDLL4; CHO-hDII4", "assay": "periplasmic extract; FMAT, Notch1/Fc on CHO-hDLL4", "text": "(§1) All calculations are based on the FL1_total signal which comprises the average of the fluorescence per well times the number of counts per well."}, "[2]": {"target": "T2, mouse DLL4, full length, overexpressed on CHO or HEK293 cells (mouse, UniProt Q9JI71 27-686)", "T2 construct": "whole, on cells; also called CHO-mDLL4; CHO-mDII4", "assay": "periplasmic extract; FMAT, Notch1/Fc on CHO-mDLL4", "text": "as §1"}, "[3]": {"target": "T3, recombinant human DLL4 extracellular domain, C-terminally His-tagged (R&D Systems) (human, UniProt Q9NR61 25-522, biotinylated in the competition assays (sites not given))", "assay": "cell-based or functional assay"}, "[4]": {"target": "T4, cynomolgus DLL4, full length, overexpressed on cells (cynomolgus, UniProt Q9NR61 27-685 (human entry))", "T4 construct": "also called CHO-cDLL4; cDLL4", "T4 chain": "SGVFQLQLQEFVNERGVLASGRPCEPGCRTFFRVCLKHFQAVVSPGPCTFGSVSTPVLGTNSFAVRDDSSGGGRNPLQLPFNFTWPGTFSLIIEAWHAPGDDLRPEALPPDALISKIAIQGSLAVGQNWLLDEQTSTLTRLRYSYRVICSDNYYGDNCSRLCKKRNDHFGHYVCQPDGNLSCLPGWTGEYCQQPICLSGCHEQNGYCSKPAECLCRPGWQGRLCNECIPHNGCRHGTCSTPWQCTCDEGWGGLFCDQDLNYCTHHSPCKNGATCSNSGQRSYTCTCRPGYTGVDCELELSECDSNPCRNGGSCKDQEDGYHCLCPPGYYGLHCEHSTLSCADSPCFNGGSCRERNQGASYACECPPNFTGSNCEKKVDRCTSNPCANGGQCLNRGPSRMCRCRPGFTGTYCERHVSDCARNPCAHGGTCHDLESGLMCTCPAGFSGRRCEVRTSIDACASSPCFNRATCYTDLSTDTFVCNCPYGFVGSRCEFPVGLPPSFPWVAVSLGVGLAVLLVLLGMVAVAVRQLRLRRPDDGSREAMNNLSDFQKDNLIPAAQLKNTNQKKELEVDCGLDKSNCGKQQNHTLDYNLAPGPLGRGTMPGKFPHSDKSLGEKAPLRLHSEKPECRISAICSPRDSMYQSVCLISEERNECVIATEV", "assay": "FACS titration on HEK293-cDLL4 cells", "protocol": "In order to determine the cynomologus cross-reactivity of the VHHs, a FACS binding experiment is performed. Cynomolgus DII4 expressing HEK293 cells (transient or stable transfection) are used for a titration binding experiment of the VHHs. After a 30 minutes incubation on ice, all samples are washed and detection is performed by applying anti-c-myc-Alexa647 (Santa Cruz Biotechnology, Santa Cruz, Calif., USA). Human and mouse DII4 overexpressing HEK293 cells are taken as reference. The mean MCF value is determined on the FACS Array and used for calculation of the EC₅₀ value (see FIG. 9)."}, "[5]": {"target": "T1, human DLL4, full length, overexpressed …", "assay": "cell-based or functional assay"}, "[6]": {"target": "T5, recombinant human Jagged-1 (Alexis) (human, UniProt P78504 34-1067, limits assumed)", "T5 construct": "also called hJagged-1; hJAG1", "assay": "rhDLL1/rhJAG1 binding ELISA"}, "[7]": {"target": "T6, recombinant human DLL1 (Alexis) (human, UniProt O00548 18-545, limits assumed)", "T6 construct": "also called hDLL1; rhDLL1", "T6 sequence (looked up)": "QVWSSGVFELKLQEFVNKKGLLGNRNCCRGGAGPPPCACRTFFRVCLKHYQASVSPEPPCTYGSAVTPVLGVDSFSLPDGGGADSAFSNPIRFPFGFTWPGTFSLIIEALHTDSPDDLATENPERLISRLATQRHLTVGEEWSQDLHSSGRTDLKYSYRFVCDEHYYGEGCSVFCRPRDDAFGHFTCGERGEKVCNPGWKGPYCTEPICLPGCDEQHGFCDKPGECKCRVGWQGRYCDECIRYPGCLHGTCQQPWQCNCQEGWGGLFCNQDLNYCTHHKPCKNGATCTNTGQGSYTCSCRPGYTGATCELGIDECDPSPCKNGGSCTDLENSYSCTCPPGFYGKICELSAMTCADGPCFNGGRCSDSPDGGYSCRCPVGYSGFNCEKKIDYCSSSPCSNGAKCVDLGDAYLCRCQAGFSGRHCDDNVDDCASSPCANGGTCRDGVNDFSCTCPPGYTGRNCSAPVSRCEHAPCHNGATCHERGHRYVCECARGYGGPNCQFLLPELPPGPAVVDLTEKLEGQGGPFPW", "assay": "rhDLL1/rhJAG1 binding ELISA"}, "[8]": {"target": "T7, recombinant mouse DLL4 extracellular domain, C-terminally His-tagged (R&D Systems) (mouse, UniProt Q9JI71 27-525)", "T7 construct": "range 1-525; also called rmDLL4; mDLL4; not shown: C-terminal His tag", "T7 sequence (Q9JI71 27-525 limits assumed)": "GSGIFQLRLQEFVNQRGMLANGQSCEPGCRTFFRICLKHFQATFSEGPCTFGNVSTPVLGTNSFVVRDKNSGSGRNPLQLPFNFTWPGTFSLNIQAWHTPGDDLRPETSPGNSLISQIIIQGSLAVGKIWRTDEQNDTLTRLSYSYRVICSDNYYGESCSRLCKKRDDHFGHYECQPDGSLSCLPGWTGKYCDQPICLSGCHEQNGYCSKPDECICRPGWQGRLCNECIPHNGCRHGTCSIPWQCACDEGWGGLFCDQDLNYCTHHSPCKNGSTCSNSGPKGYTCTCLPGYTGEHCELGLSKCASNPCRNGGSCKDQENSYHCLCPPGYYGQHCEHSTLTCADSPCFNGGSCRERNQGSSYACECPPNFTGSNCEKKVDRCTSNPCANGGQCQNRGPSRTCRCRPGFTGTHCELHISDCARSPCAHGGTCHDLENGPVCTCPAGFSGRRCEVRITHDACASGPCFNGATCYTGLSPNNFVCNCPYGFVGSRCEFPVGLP", "assay": "binding ELISA on coated rmDLL4", "protocol": "In order to determine cross-reactivity to mouse DII4 a binding ELISA is performed. […] Wells are blocked with a casein solution (1% in PBS). VHHs are applied as dilution series and binding is detected using a mouse anti-myc (Roche) and an anti-mouse-AP conjugate (Sigma, St Louis, Mo., USA) (FIG. 7)."}, "[9]": {"target": "T2, mouse DLL4, full length, overexpressed …", "assay": "FMAT competition: labelled hNotch1-Fc on CHO-mDLL4 cells", "text": "as §1"}, "human Ang2 [10]": {"target": "T8, human Ang2 (human, UniProt O15123 19-496, limits assumed)", "T8 construct": "also called hAng2; human Angiopoietin2", "T8 sequence (looked up)": "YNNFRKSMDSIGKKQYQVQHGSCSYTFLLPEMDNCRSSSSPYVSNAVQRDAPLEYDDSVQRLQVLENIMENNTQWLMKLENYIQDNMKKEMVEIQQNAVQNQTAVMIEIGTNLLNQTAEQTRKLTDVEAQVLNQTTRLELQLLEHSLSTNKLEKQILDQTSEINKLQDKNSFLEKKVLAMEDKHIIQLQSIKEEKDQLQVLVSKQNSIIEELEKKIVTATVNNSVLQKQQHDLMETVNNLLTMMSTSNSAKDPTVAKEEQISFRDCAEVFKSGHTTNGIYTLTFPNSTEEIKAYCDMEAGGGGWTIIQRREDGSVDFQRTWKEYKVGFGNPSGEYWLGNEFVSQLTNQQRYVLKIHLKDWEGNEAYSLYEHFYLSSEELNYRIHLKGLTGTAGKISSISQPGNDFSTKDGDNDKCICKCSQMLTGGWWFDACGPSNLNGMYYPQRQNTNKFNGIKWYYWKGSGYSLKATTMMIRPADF", "assay": "competition ELISA hAng2/hTie2-Fc, with 0.5 uM HSA [continued]", "protocol": "(§2) This assay is also performed after incubation of the VHH with 0.5 μM human serum albumin."}, "human Ang2 [11]": {"target": "T8, human Ang2", "assay": "competition ELISA hAng2/hTie2-Fc", "protocol": "as §2"}, "[12]": {"target": "T3, recombinant human DLL4 extracellular …", "assay": "periplasmic extract; Biacore off-rate"}, "[13]": {"target": "T3, recombinant human DLL4 extracellular …", "assay": "periplasmic extract; hDLL4 ELISA"}, "[14]": {"target": "T3, recombinant human DLL4 extracellular …", "assay": "periplasmic extract; hDLL4/hNotch1 AlphaScreen", "protocol": "To this mixture, the acceptor beads and the streptavidin donor beads are added and further incubated for 1 hour at room temperature. Fluorescence is measured by reading plates on the Envision Multilabel Plate reader (Perkin Elmer, Waltham, Mass., USA) using an excitation wavelength of 680 nm and an emission wavelength of 520 nm."}}}
{"binder": "B1", "values": [{"measurement": "% inhibition", "setting": "[1]", "value": 91, "unit": "%"}, {"measurement": "% inhibition", "setting": "[2]", "value": 92, "unit": "%"}, {"measurement": "concentration giving complete inhibition, HUVEC proliferation assay", "setting": "[3]", "value": 10, "unit": "µM"}, {"measurement": "EC50 (read off the curve)", "setting": "[4]", "value": "~8", "unit": "nM"}, {"measurement": "IC50, DLL4/Notch1 reporter assay (luciferase; co-culture with HEK293-hDII4)", "setting": "[5]", "value": 2760, "unit": "nM"}]}
{"binder": "B2", "values": [{"measurement": "binding result", "setting": "[6]", "value": "no binding"}, {"measurement": "binding result", "setting": "[7]", "value": "no binding"}, {"measurement": "EC50 (read off the curve)", "setting": "[8]", "value": "~0.5", "unit": "nM"}]}
{"binder": "B3", "values": [{"measurement": "binding result", "setting": "[9]", "value": "binds"}]}
{"binder": "B4", "values": [{"measurement": "IC50 (read off the curve)", "setting": "human Ang2 [10]", "value": "~0.6", "unit": "nM"}, {"measurement": "IC50 (read off the curve)", "setting": "human Ang2 [11]", "value": "~0.6", "unit": "nM"}]}
{"binder": "B5", "values": [{"measurement": "IC50 (read off the curve)", "setting": "human Ang2 [11]", "value": "~0.1", "unit": "nM"}]}
{"binder": "B6", "values": [{"measurement": "binding result", "setting": "[4]", "value": "binds"}]}
{"binder": "B7", "values": [{"measurement": "koff", "setting": "[12]", "value": 0.0013, "unit": "s⁻¹"}, {"measurement": "% inhibition", "setting": "[13]", "value": 98, "unit": "%"}, {"measurement": "% inhibition", "setting": "[14]", "value": 85, "unit": "%"}]}
{"binder": "B8", "values": [{"measurement": "koff", "setting": "[12]", "value": 0.0015, "unit": "s⁻¹"}, {"measurement": "% inhibition", "setting": "[13]", "value": 93, "unit": "%"}, {"measurement": "% inhibition", "setting": "[14]", "value": 82, "unit": "%"}]}
{"binder": "B9", "values": [{"measurement": "koff", "setting": "[12]", "value": 0.00056, "unit": "s⁻¹"}, {"measurement": "% inhibition", "setting": "[13]", "value": 82, "unit": "%"}, {"measurement": "% inhibition", "setting": "[14]", "value": 84, "unit": "%"}]}
